Results on 1 molecule are retold here after patent US20190112365A1 (EISAI R AND D MANAGEMENT, published 2019).

For test [1], the target named is T1, HVPGG site of Tau (15-mer array peptides containing HVPGG) (human).
T1 peptide: HVPGG
Kind of test: peptide microarray; HVPGG site of the second repeat region against HKPGG (repeat region 3). Here is the method: (§1) The diluted antibody was incubated on the chip for 16 hours at 4° C. with shaking at 140 rpm. Primary antibody was removed and the chip was washed in PBS (pH 7.4)/0.05% Tween 20. Wash buffer was removed and goat anti-mouse IgG (H+L) DyLight™680 (1:5000) and an anti-HA tag DyLight™ 800 (1:2000) in the same buffer as the primary antibody was then incubated for 45 minutes at room temperature on the chip. Detection antibody was removed and the chip was washed once again as previously. Fluorescence images were acquired on the LI-COR Odyssey™ Imaging System and the microarray data was finally analyzed using the PepSlide™ Analyser software.

Test [2] deals with T1, HVPGG site of Tau (15-mer array …). Kind of test: peptide microarray; HVPGG site of the fourth repeat region against HQPGG (repeat region 1). Here is the method: as §1
Test [3] concerns the target T2, P301S mutant human 2N4R Tau, recombinant full length (human, UniProt P10636 2-758).
T2 construct: The equivalent P301S mutant of 2N4R Tau; also called P301S-2N4R Tau; P301S Tau
Kind of test: SPR; KD on P301S-2N4R Tau against KD on wild type 2N4R Tau. As to the method: (§2) Purified antibodies from hybridomas were captured by protein A/G immobilized on a CM5 sensor chip (GE Healthcare). The wild type and P301S Tau proteins were then injected onto the sensor chip at five different concentrations and the affinity (equilibrium dissociation constant, KD) was calculated according to the manufacturer's instruction.

Test [4] concerns the target T2, P301S mutant human 2N4R Tau, …. Kind of test: SPR BIAcore T100, mAb captured by protein A/G, Tau injected. Here is the method:
(§3) Kinetic analysis of the interaction of the anti-Tau mouse monoclonal antibodies generated in Example 1 with human wild type Tau (2N4R) and the equivalent P301S mutant Tau protein was conducted using a BIAcore™ T100 instrument. Recombinant human full length Tau proteins were expressed in E. coli and then purified by Cellufine™ phosphate affinity chromatography followed by ammonium sulfate precipitation and reverse phase HPLC chromatography.
as §2
For orientation: SPR reads the build-up and loss of mass on a sensor chip optically.

In test [5] the target is T3, Human Tau 2N4R, wild type, recombinant full length (human, UniProt P10636 2-758).
T3 construct: Full length 2N4R isoform; monomer in SPR and ELISA; heparin-induced aggregates or seeds in the functional assays; also called Tau441; Tau-441
T3 sequence (P10636 other isoform, or with tags, fused parts or gaps limits assumed): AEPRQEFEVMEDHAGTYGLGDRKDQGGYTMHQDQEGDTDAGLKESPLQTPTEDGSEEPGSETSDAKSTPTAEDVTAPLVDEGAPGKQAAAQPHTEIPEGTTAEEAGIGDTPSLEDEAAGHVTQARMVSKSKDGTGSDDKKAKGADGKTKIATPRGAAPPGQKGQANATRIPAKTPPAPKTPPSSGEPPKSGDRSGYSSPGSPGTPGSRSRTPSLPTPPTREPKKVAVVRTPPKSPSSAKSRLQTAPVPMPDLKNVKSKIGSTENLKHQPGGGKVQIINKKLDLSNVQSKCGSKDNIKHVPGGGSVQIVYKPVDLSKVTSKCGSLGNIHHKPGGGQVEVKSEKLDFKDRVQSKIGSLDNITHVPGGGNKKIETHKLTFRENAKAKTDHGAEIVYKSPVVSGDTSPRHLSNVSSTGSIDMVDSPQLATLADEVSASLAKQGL
The test is described as above. Here is the method: as §3, §2

Test [6] addresses T4, Tau peptide KDNIKHVSGGGSVQI (human).
T4 construct: Variant peptide of the substitution scan
T4 peptide: KDNIKHVSGGGSVQI
The test is described as follows: epitope substitution scanning on peptide chip. From the text: FIG. 4 illustrates the results of the murine 7G6 antibody epitope substitution scanning of the peptide sequence […] (SEQ ID NO: 26), corresponding to amino acids 294 to 308 of the human 2N4R Tau protein. Each amino acid position of the peptide was replaced by every naturally occurring amino acid possible, printed onto a glass chip, and probed with the ms7G6 antibody. FIG. 4 illustrates the results for select peptides (SEQ ID NOs 38-78, respectively). While ms7G6 antibody binding allows some variation in the second position (valine) of SEQ ID NO: 79, antibody binding is completely dependent on the proline residue of SEQ ID NO: 79. No binding of antibody 7G6 to […] (SEQ ID NO: 59) was observed. The latter is the sequence present in Tau P301S mutant protein.
The ms7G6 anti-Tau antibody was diluted to a concentration of 1 μg/mL in PBS (pH 7.4) containing 0.05% Tween 20 and 10% Rockland blocking buffer (MB-070). The diluted antibody was incubated on the chip for 16 hours at 4° C. with shaking at 140 rpm. Primary antibody was removed and the chip was washed in PBS (pH 7.4)/0.05% Tween 20. […] Fluorescence images were acquired on the LI-COR Odyssey™ Imaging System and the microarray data was finally analyzed using the PepSlide™ Analyser software.

Test [7] concerns the target T1, HVPGG site of Tau (15-mer array …). Kind of test: peptide microarray; HVPGG site of the fourth repeat region against HKPGG (repeat region 3). As to the method:
as §1

The target is the same in test [8]. Kind of test: peptide microarray; HVPGG site of the second repeat region against HQPGG (repeat region 1). Here is the method:
as §1

T2 sequence (P10636 other isoform, or with tags, fused parts or gaps P301S P301S limits assumed): as the sequence (P10636 other isoform, or with tags, fused parts or gaps limits assumed) above, with P300S counted along it

B1: murine 7G6 antibody (antibody, mouse IgG2b, V domains shown)
VH: QVQLLQPGAELVKPGASVIMSCKASGYTFTTYWITWVKQRPGQGLEWIGDIYPGSSICNYNEKFKSKATLTVDTSSSTAYMQLNSLTSEDSAVYYCAREDGYDAWFAYWGQGTLVTVSA
VL: DVLMTQTPLSLPVSLGDQASISCRSSQSILHSNGNTYLEWYLQKPGQSPKLLICKVSNRFSGVPDRFSGSGSGTDFTLKISRVEAEDLGVYYCFQGSHVPFTFGSGTKLEIK
notes: Mouse IgG2b, kappa, purified from hybridoma; also called ms7G6; mouse 7G6
With B1, the “fold preference in binding (average signal intensities)” value was 38 fold in test [1], 35 fold in test [2], 33 fold in test [7] and 41 fold in test [8]. In addition, the Fold difference in test [3] came to 11 fold. Besides, the Kd in test [4] was found to be 0.57 nM; in test [5], 0.052 nM. In test [6], the binding result is listed as “no binding (tested: 1 µg/mL)”.

By Kd is commonly meant the constant that tells how readily two partners part at equilibrium.
